The RNAGym collection of RNA variant scans (doi:10.7554/elife.80360)

B1: Hairpin Ribozyme (parent)
chain: GUCCUCUUUCACGUGCGCGUGAAAGAGAGAAGUGAACCAGAGAAACACACGUUGUGGUAUAUUACCUGGUA

Variants of: B1
Test: self-cleavage, relative activity (ratio to wild type); higher = more cleavage; co-transcriptional
Work on G29U U58C yielded a self-cleavage of 0.18. For A28U A59G, the self-cleavage was 0.243. A28C U52G gave a self-cleavage of 0.301. Variant G29C C46G has a self-cleavage of 0.0799. In the case of G29A A30C, the self-cleavage is reported as 0.115. With G29A A30U the self-cleavage was 0.0939. For G29C G69A, the self-cleavage was 0.0986. Work on G29C G69U yielded a self-cleavage of 0.119. Variant G29U U60C has a self-cleavage of 0.107. In the case of A28G G40U, the self-cleavage is reported as 0.19. Variant G29U U33C has a self-cleavage of 0.165. With G29U U33A the self-cleavage was 0.169. In the case of A28C U70A, the self-cleavage is reported as 0.468. G29C A31C gave a self-cleavage of 0.17. With A28U C50A the self-cleavage was 0.213. Work on A28U C50G yielded a self-cleavage of 0.173. In the case of A28G A44U, the self-cleavage is reported as 0.142. Work on G27U A28G yielded a self-cleavage of 0.119. Work on G29U C46G yielded a self-cleavage of 0.182. G29U C48G showed a self-cleavage of 0.096. In the case of A28C A35G, the self-cleavage is reported as 0.445. A28C A35C gave a self-cleavage of 0.864. Work on A28C A35U yielded a self-cleavage of 0.295. G29U G57U showed a self-cleavage of 0.149. G29U G57C showed a self-cleavage of 0.108. For A28G G51C, the self-cleavage was 1.08. Variant G29U U62G has a self-cleavage of 0.0909. In the case of G29C G68A, the self-cleavage is reported as 0.0962. G29A C66A showed a self-cleavage of 0.139. Work on A30C C65G yielded a self-cleavage of 0.166. Work on G29U A43U yielded a self-cleavage of 0.215. In the case of G29A A39G, the self-cleavage is reported as 0.128. Variant G29A A39C has a self-cleavage of 0.108. In the case of G29U G51C, the self-cleavage is reported as 0.167. Work on A30C A35C yielded a self-cleavage of 0.181. Variant A28G A39G has a self-cleavage of 0.357. Variant A28U A30U has a self-cleavage of 0.136. With A28U U60C the self-cleavage was 0.871. With A28C U58A the self-cleavage was 0.401. Variant A28C U58G has a self-cleavage of 0.151. With A30C A31C the self-cleavage was 0.159. Work on A30C A31G yielded a self-cleavage of 0.141. G27U A45G gave a self-cleavage of 0.131. Work on G27U A45U yielded a self-cleavage of 0.0868. With G27U A45C the self-cleavage was 0.0886. A28G U70A gave a self-cleavage of 1.05. G29A A31C gave a self-cleavage of 0.129. A28C G32A gave a self-cleavage of 0.172. With G29C C38A the self-cleavage was 0.174. Work on G27U U58C yielded a self-cleavage of 0.318. G29A A45G showed a self-cleavage of 0.105. Work on A30C C48A yielded a self-cleavage of 0.103. With G27U A71G the self-cleavage was 0.261. For G27U A71U, the self-cleavage was 0.166. With G29C U63C the self-cleavage was 0.094. In the case of G29U U53G, the self-cleavage is reported as 0.102. A28C C38A gave a self-cleavage of 0.205. A28C C48U gave a self-cleavage of 0.124. G27U U53G showed a self-cleavage of 0.23. With G29U G54U the self-cleavage was 0.207. For G27C U63C, the self-cleavage was 0.222. For G27C U63A, the self-cleavage was 0.174. G27U A35G showed a self-cleavage of 0.228. Variant G29U A49U has a self-cleavage of 0.0858. Variant A28U U70C has a self-cleavage of 0.394. In the case of G29U A61U, the self-cleavage is reported as 0.0881. With G29U A30U the self-cleavage was 0.176. With G29U A30G the self-cleavage was 0.189. G27U A44G gave a self-cleavage of 0.193. G27U A44C showed a self-cleavage of 0.0839. Work on G29C A71G yielded a self-cleavage of 0.206. G29C A71C gave a self-cleavage of 0.179. With A28U U58G the self-cleavage was 0.416. For G29C G40C, the self-cleavage was 0.133. For G29C G40A, the self-cleavage was 0.115. Variant G29A U33G has a self-cleavage of 0.167. For G27U U62C, the self-cleavage was 0.191. G29A U55C gave a self-cleavage of 0.163. Work on G29U G34A yielded a self-cleavage of 0.0892. In the case of G27C G32U, the self-cleavage is reported as 0.15. Work on A28G G32A yielded a self-cleavage of 0.236. Work on A28G G32U yielded a self-cleavage of 0.0347. With G29C A43C the self-cleavage was 0.125. With G29C G51U the self-cleavage was 0.141. Variant A28U C37U has a self-cleavage of 0.376. Variant A28U C37G has a self-cleavage of 0.193. In the case of A30C U60A, the self-cleavage is reported as 0.12. In the case of A28G C37G, the self-cleavage is reported as 0.36. For A28G C37A, the self-cleavage was 0.504. G29C U52C showed a self-cleavage of 0.163. In the case of G27C G56C, the self-cleavage is reported as 0.134. A28U C46G gave a self-cleavage of 0.109. A28U C46U showed a self-cleavage of 0.046. With G29U A39C the self-cleavage was 0.174. A28G G29C showed a self-cleavage of 0.12. For G27U A41G, the self-cleavage was 0.305. In the case of G27U A41U, the self-cleavage is reported as 0.554. With G29C A39G the self-cleavage was 0.0911. Variant G29C A39C has a self-cleavage of 0.106. For G29A C37U, the self-cleavage was 0.134. G29A C37G gave a self-cleavage of 0.103. Work on G29A C37A yielded a self-cleavage of 0.107. With G29U G32C the self-cleavage was 0.105. Work on A30C A39G yielded a self-cleavage of 0.1. Variant G29A A64G has a self-cleavage of 0.0994. With A28C A71U the self-cleavage was 0.291. With A28C A71C the self-cleavage was 1.05. In the case of A28C A71G, the self-cleavage is reported as 0.457. Work on G27C U70A yielded a self-cleavage of 0.319. With G27C U70C the self-cleavage was 0.132. With A28C A61C the self-cleavage was 0.122. Variant G27U C66G has a self-cleavage of 0.126. Work on G27U C66U yielded a self-cleavage of 0.288. For A28U U52C, the self-cleavage was 0.768. A28U U52A gave a self-cleavage of 0.423. For A30C A36G, the self-cleavage was 0.223. In the case of A30C A36C, the self-cleavage is reported as 0.164. Work on G29U A64U yielded a self-cleavage of 0.14. With G29A G56C the self-cleavage was 0.166. Variant A28C C37A has a self-cleavage of 0.166. Work on G29A C48G yielded a self-cleavage of 0.124. In the case of G29A G40C, the self-cleavage is reported as 0.0971. G29C A44G showed a self-cleavage of 0.243. In the case of A30C, the self-cleavage is reported as 0.183. Work on G27C G54A yielded a self-cleavage of 0.133. In the case of G27C U67C, the self-cleavage is reported as 0.103. G29U U52A showed a self-cleavage of 0.124. G29C A49C showed a self-cleavage of 0.159. G29C U60G gave a self-cleavage of 0.201. For A28C A49C, the self-cleavage was 0.119. In the case of G29A U70G, the self-cleavage is reported as 0.182. Variant G29A U70C has a self-cleavage of 0.171. Variant G29A U70A has a self-cleavage of 0.0755. A28C A45C gave a self-cleavage of 0.0427. In the case of A28C A44G, the self-cleavage is reported as 0.0991. Variant A28C A44C has a self-cleavage of 0.134. A28U G42C showed a self-cleavage of 0.0977. Variant A28U G42U has a self-cleavage of 0.218. In the case of A28G C46G, the self-cleavage is reported as 0.134. With G29U G42A the self-cleavage was 0.0859. With G29U G42C the self-cleavage was 0.115. A30C C50G gave a self-cleavage of 0.142. Variant A28G A64G has a self-cleavage of 0.425. Work on A28G G68A yielded a self-cleavage of 0.349. Work on G29C G32U yielded a self-cleavage of 0.121. Work on G29C G32C yielded a self-cleavage of 0.128. G29C G32A gave a self-cleavage of 0.167. With A28U G57U the self-cleavage was 0.235. G27U U67A showed a self-cleavage of 0.177. Work on G29U U70A yielded a self-cleavage of 0.21. Work on A28U A39G yielded a self-cleavage of 0.143. In the case of A28U A39U, the self-cleavage is reported as 0.222. G29U C65A showed a self-cleavage of 0.139. G29C A30C gave a self-cleavage of 0.0921. A30C G54U showed a self-cleavage of 0.0809. With A28G C38U the self-cleavage was 0.547. A28G C38G gave a self-cleavage of 0.169. Variant A28G C38A has a self-cleavage of 0.168. For G29C G42U, the self-cleavage was 0.11. G29C G42A gave a self-cleavage of 0.13. For G27C G69A, the self-cleavage was 0.0883. G29A G51C gave a self-cleavage of 0.216. Work on G29A A35G yielded a self-cleavage of 0.147. With G29A A35C the self-cleavage was 0.187. For G29A A49U, the self-cleavage was 0.122. Work on G29C A35U yielded a self-cleavage of 0.0473. G29C A35C showed a self-cleavage of 0.104.
